This note sets out measurements from patent US20230302148A1, “PHARMACEUTICAL COMPOSITION COMPRISING LONG-ACTING CONJUGATE OF TRIPLE GLUCAGON/GLP-1/GIP RECEPTOR AGONIST” (HANMI PHARM. CO., LTD., priority 2020, published 2023).

Bridges are numbered along the chain shown (N, C = ends). Where no end group is shown, it is not given here. [ ]: non-standard residue; d: D form. The star is where a group is joined. Acetyl(2-(4-imidazolyl)) = O=C(Cc1c[nH]cn1)*; Aib = CC(C)(N)C(=O)O

One series in a line: FIGURE 5. The source says: Table printed on a drawing sheet, FIGURE 5
A short description of another series: FIGURE 13. The source says:
Table printed on a drawing sheet, FIGURE 13
W1 means Week 1 and W12 means Week 12.
First reader's note: The first row gives the substance together with its dose (mg/kg), and each result cell holds the value with its ± deviation in the same cell.

In a further series the target is human GCG receptor (human, UniProt P47871 26-477). The experiment in a line: cell-based or functional assay.
Chain of human GCG receptor (P47871 26-477): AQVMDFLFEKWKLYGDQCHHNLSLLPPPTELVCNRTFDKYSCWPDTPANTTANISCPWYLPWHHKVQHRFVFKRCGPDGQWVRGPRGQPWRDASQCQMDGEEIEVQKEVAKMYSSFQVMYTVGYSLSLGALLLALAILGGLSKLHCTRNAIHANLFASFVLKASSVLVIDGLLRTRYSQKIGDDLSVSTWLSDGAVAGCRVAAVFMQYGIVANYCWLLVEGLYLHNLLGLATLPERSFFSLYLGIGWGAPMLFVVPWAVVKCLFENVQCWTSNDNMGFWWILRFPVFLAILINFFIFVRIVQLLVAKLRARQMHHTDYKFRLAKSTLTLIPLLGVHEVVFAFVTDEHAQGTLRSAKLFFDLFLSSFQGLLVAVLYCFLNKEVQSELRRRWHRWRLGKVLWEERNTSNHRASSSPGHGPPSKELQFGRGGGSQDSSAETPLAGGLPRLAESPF
For a further series, the target named is T1, human GIP receptor (human, UniProt P48546 22-466).
T1 sequence (looked up): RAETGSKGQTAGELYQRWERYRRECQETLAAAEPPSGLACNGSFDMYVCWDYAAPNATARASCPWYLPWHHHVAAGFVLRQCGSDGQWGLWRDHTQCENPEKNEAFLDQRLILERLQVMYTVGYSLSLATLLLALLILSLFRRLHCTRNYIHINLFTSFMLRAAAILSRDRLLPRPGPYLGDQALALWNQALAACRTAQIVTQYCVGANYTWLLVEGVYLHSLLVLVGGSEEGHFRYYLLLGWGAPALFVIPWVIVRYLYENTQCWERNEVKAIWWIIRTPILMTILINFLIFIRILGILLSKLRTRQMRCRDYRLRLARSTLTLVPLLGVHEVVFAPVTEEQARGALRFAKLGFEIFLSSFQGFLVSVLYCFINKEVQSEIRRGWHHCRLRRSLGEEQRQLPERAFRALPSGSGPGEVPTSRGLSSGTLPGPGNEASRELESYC
Nature of the series: cell-based or functional assay.

Another series addresses human GLP-1 receptor (human, UniProt P43220 24-463). The experiment in a line: cell-based or functional assay.

One may read the Cmax as the peak of the concentration-time curve. What is called Tmax is the time from dosing to the highest level.

“LONG-ACTING CONJUGATE OF SEQ ID NO: 42 0.01 mg/kg (N=5) (Y[Aib]QGTFTSDYSKYLDEKRAKEFVQWLLDHHPSSGQPPPSC; lactam 16-20; not fully specified (residue 40); also: long-acting carrier conjugate)”: in “FIGURE 5”, the “Dose-normalized Cmax (ng/mL/mg)” value was 30.73 (13.34) ng/mL/mg and the “Tmax (hr)” value was 31.20 (10.733) hr.

Consider “LONG-ACTING CONJUGATE OF SEQ ID NO: 42 0.01 mg/kg (Y[Aib]QGTFTSDYSKYLDEKRAKEFVQWLLDHHPSSGQPPPSC; lactam 16-20; not fully specified (residue 40); also: long-acting carrier conjugate)”, for which, in “FIGURE 13”, the maximum concentration (Cmax) amounted to 0.03122 ± 0.01347 µg/mL and the time of peak concentration (Tmax) was found to be 48.00 ± 12.00 h.

Consider “LONG-ACTING CONJUGATE OF SEQ ID NO: 42 0.02 mg/kg (Y[Aib]QGTFTSDYSKYLDEKRAKEFVQWLLDHHPSSGQPPPSC; lactam 16-20; not fully specified (residue 40); also: long-acting carrier conjugate)”, for which, in “FIGURE 13”, the “AUC0-168h” value worked out at 11.7703 ± 7.1924 µg·h/mL and the “Tmax” value was 48.00 ± 22.22 h.

B1: triple agonist of SEQ ID NO: 20 (peptide)
peptide: [Acetyl(2-(4-imidazolyl))]GQGTFTSDLSIQYEEEAQQDFVEWLKDTGPSSGAPPPSHG
Take B1: the “In vitro activity relative to native peptide (%) vs. Glucagon” value with human GCG receptor was below 0.1%. Also, in the series with human GIP receptor, the “In vitro activity relative to native peptide (%) vs. GIP” value is below 0.1%. Moreover, in the series with human GLP-1 receptor, the “In vitro activity relative to native peptide (%) vs. GLP-1” value is below 0.1%.

B2: triple agonist of SEQ ID NO: 21 (peptide)
peptide: Y[Aib]QGTFTSDYSKYLDECRAKEFVQWLLDHHPSSGQPPPS
modifications: bridge 16-20
On to B2, for which the “In vitro activity relative to native peptide (%) vs. Glucagon” value in the series with human GCG receptor was determined as 267%. Moreover, the “In vitro activity relative to native peptide (%) vs. GIP” value in the series with human GIP receptor was determined as 22.7%. The “In vitro activity relative to native peptide (%) vs. GLP-1” value in the series with human GLP-1 receptor turned out to be 17.8%.

B3: triple agonist of SEQ ID NO: 30 (peptide)
peptide: H[Aib]QGTFTSDYSKYLDEKAQKEFVQWLLDTC
modifications: bridge 16-20
In the case of B3, the “In vitro activity relative to native peptide (%) vs. Glucagon” value with human GCG receptor amounted to 0.7%. Also, the “In vitro activity relative to native peptide (%) vs. GIP” value with human GIP receptor came out at 0.8%. Besides, the “In vitro activity relative to native peptide (%) vs. GLP-1” value in the series with human GLP-1 receptor is 142%.

B4: triple agonist of SEQ ID NO: 19 (peptide)
peptide: [Acetyl(2-(4-imidazolyl))]GQGTFTSDLSIQYDSEHQRDFIEWLKDTGPSSGAPPPSHG
On to B4, for which, in the series with human GCG receptor, the “In vitro activity relative to native peptide (%) vs. Glucagon” value is below 0.1%. The “In vitro activity relative to native peptide (%) vs. GIP” value in the series with human GIP receptor is below 0.1%. For the same molecule, the “In vitro activity relative to native peptide (%) vs. GLP-1” value with human GLP-1 receptor was below 0.1%.

B5: triple agonist of SEQ ID NO: 26 (peptide)
peptide: H[Aib]QGTFTSDCSKYLDSRAAQDFVQWLLDGGPSSGAPPPS
For the molecule B5, in the series with human GCG receptor, the “In vitro activity relative to native peptide (%) vs. Glucagon” value came out at 0.2%. For the same molecule, the “In vitro activity relative to native peptide (%) vs. GIP” value with human GIP receptor is below 0.1%. Moreover, the “In vitro activity relative to native peptide (%) vs. GLP-1” value in the series with human GLP-1 receptor was 64.5%.

B6: triple agonist of SEQ ID NO: 31 (peptide)
peptide: H[Aib]QGTFTSDYSKYLDEKACKEFVQWLLAQ
modifications: bridge 16-20
As to B6, the “In vitro activity relative to native peptide (%) vs. Glucagon” value with human GCG receptor worked out at 2.2%. The “In vitro activity relative to native peptide (%) vs. GIP” value with human GIP receptor was 2.4%. The “In vitro activity relative to native peptide (%) vs. GLP-1” value in the series with human GLP-1 receptor was determined as 135%.

B7: triple agonist of SEQ ID NO: 33 (peptide)
peptide: H[Aib]QGTFTSDYSIAMDEIHQKDFVNWLLAQKC
modifications: bridge 16-20
In the case of B7, the “In vitro activity relative to native peptide (%) vs. Glucagon” value in the series with human GCG receptor was below 0.1%. In addition, the “In vitro activity relative to native peptide (%) vs. GIP” value in the series with human GIP receptor was 10.4%. The “In vitro activity relative to native peptide (%) vs. GLP-1” value with human GLP-1 receptor was determined as 24.5%.

B8: triple agonist of SEQ ID NO: 23 (peptide)
peptide: Y[Aib]QGTFTSDYSKYLDECRAKEFVQWLLAQKGKKNDWKHNIT
modifications: bridge 16-20
For B8, in the series with human GCG receptor, the “In vitro activity relative to native peptide (%) vs. Glucagon” value amounted to 9.3%. The “In vitro activity relative to native peptide (%) vs. GIP” value with human GIP receptor was below 0.1%. The “In vitro activity relative to native peptide (%) vs. GLP-1” value in the series with human GLP-1 receptor is 4.01%.

B9: triple agonist of SEQ ID NO: 24 (peptide)
peptide: Y[Aib]QGTFTSDYSKYLDECRAKEFVQWLKNGGPSSGAPPPS
modifications: bridge 16-20
As for B9, the “In vitro activity relative to native peptide (%) vs. Glucagon” value with human GCG receptor was determined as 9.3%. For the same molecule, the “In vitro activity relative to native peptide (%) vs. GIP” value with human GIP receptor was below 0.1%. Further, the “In vitro activity relative to native peptide (%) vs. GLP-1” value in the series with human GLP-1 receptor turned out to be 41.2%.

B10: triple agonist of SEQ ID NO: 29 (peptide)
peptide: H[Aib]QGTFTSDYSKYLDEKAAKEFVQWLLNTC
modifications: bridge 16-20
B10: in the series with human GCG receptor, the “In vitro activity relative to native peptide (%) vs. Glucagon” value was determined as 6%. Moreover, the “In vitro activity relative to native peptide (%) vs. GIP” value with human GIP receptor was below 0.1%. Besides, in the series with human GLP-1 receptor, the “In vitro activity relative to native peptide (%) vs. GLP-1” value was determined as 38.5%.

B11: triple agonist of SEQ ID NO: 25 (peptide)
peptide: H[Aib]QGTFTSDCSKYLDERAAQDFVQWLLDGGPSSGAPPPS
As to B11, in the series with human GCG receptor, the “In vitro activity relative to native peptide (%) vs. Glucagon” value came to 0.1%. The “In vitro activity relative to native peptide (%) vs. GIP” value with human GIP receptor is below 0.1%. The “In vitro activity relative to native peptide (%) vs. GLP-1” value in the series with human GLP-1 receptor was 82.6%.

B12: triple agonist of SEQ ID NO: 3 (peptide)
peptide: H[Aib]QGTFTSDVSSYLLGQAAKQFIAWLVKGGGPSSGAPPPSC
In the case of B12, in the series with human GCG receptor, the “In vitro activity relative to native peptide (%) vs. Glucagon” value was below 0.1%. Moreover, the “In vitro activity relative to native peptide (%) vs. GIP” value in the series with human GIP receptor is below 0.1%. Also, the “In vitro activity relative to native peptide (%) vs. GLP-1” value in the series with human GLP-1 receptor was found to be 1.8%.

B13: triple agonist of SEQ ID NO: 22 (peptide)
peptide: Y[Aib]QGTFTSDYSKCLDEKRAKEFVQWLLDHHPSSGQPPPS
modifications: bridge 16-20
As to B13, the “In vitro activity relative to native peptide (%) vs. Glucagon” value in the series with human GCG receptor stood at 140%. In addition, the “In vitro activity relative to native peptide (%) vs. GIP” value with human GIP receptor was found to be 59.7%. Also, the “In vitro activity relative to native peptide (%) vs. GLP-1” value with human GLP-1 receptor stood at 20.1%.

B14: triple agonist of SEQ ID NO: 27 (peptide)
peptide: H[Aib]QGTFTSDYSKYLDERACQDFVQWLLDQGGPSSGAPPPS
As for B14, in the series with human GCG receptor, the “In vitro activity relative to native peptide (%) vs. Glucagon” value is 0.8%. Besides, the “In vitro activity relative to native peptide (%) vs. GIP” value in the series with human GIP receptor is 0.9%. Further, in the series with human GLP-1 receptor, the “In vitro activity relative to native peptide (%) vs. GLP-1” value was 83.1%.

B15: triple agonist of SEQ ID NO: 32 (peptide)
peptide: H[Aib]QGTFTSDYSKYLDEKACKDFVQWLLDGGPSSGAPPPS
modifications: bridge 16-20
B15: the “In vitro activity relative to native peptide (%) vs. Glucagon” value with human GCG receptor is 1.7%. The “In vitro activity relative to native peptide (%) vs. GIP” value in the series with human GIP receptor was 8.8%. Moreover, the “In vitro activity relative to native peptide (%) vs. GLP-1” value with human GLP-1 receptor is 151%.

B16: triple agonist of SEQ ID NO: 28 (peptide)
peptide: H[Aib]QGTFTSDYSKYLDEKRAQEFVCWLLAQKGKKNDWKHNIT
Take B16: in the series with human GCG receptor, the “In vitro activity relative to native peptide (%) vs. Glucagon” value turned out to be 1.6%. Further, the “In vitro activity relative to native peptide (%) vs. GIP” value with human GIP receptor was below 0.1%. Further, the “In vitro activity relative to native peptide (%) vs. GLP-1” value with human GLP-1 receptor worked out at 17.2%.
